Test results reported in publication PMC12948236.

Assays:
thrombin [1] = molecular target: T1, thrombin (UniProt P00734;P00734 328-363;364-622); test: AFM imaging / C-AFM; monovalent anchoring; Na+ samples: 140 mM NaCl, 40 mM Tris-acetic acid, 1 mM EDTA, 12.5 mM MgCl2, 5 mM KCl; specificity tests 5 nM origami, 100 nM protein; imaging buffer, pH and tem
thrombin [2] = molecular target: T1, thrombin; test: AFM imaging; 5 nM origami, 100 nM thrombin; empty:filled cavities 25:0; Na+ samples: 140 mM NaCl, 40 mM Tris-acetic acid, 1 mM EDTA, 12.5 mM MgCl2, 5 mM KCl; specificity tests 5 nM origami, 100 nM protein; imaging buffer, pH and tem

Binder | binding result (thrombin [1]) | binding result (thrombin [2])
DNA origami with TBA15 only (20-TBA15) (mixed, 3'-C3-S-S-C3 on edge staples; none on aptamer strand) DNA: CATCTGACCTCTGTGCTGCTTTTTGGTTGGTGTGGTTGGTTTTTTCACGGTAGCACGCATAGG | binds | 
DNA origami with four SA aptamers (20-SAA1) (mixed, 3'-C3-S-S-C3 on edge staples (gold samples); none on aptamer strand) DNA: TGAATCTAACGGTGCGTATCTTTTTCTGTGAGACGACGCACCGTCGCAGGTTTTGTCTCACAGTTTTGTACCTCGGAGACCAAGTAG |  | no binding
